In patent publication US20260055162A1:

Experiments:
Assay in all cases: cell-based or functional assay
[1] = molecular target: AA-TGFB-081 (TGFB-081), TGF-BR2 ECD-ICOS TM-ICOS ICD
[2] = molecular target: AA-TGFB-086 (TGFB-086), TGF-BR2 ECD-CD28 Long TM-IRAK4 ICD
[3] = molecular target: AA-TGFB-077 (TGFB-077), TGF-BR2 ECD-GCSFR TM-GCSFR ICD
[4] = molecular target: AA-TGFB-073 (TGFB-073), TGF-BR2 ECD-SLAMF7 TM-SLAMF7 ICD
[5] = molecular target: AA-TGFB-078 (TGFB-078), TGF-BR2 ECD-CSF1R TM-CSF1R ICD
[6] = molecular target: AA-TGFB-088 (TGFB-088), TGF-BR2 ECD-DR3 TM-DR3 ICD
[7] = molecular target: AA-TGFB-072 (TGFB-072), TGF-BR2 ECD-SLAMF6 TM-SLAMF6 ICD
Sequence of AA-TGFB-072 (TGFB-072), TGF-BR2 ECD-SLAMF6 TM-SLAMF6 ICD (chain, as listed by the source limits assumed, form in doubt): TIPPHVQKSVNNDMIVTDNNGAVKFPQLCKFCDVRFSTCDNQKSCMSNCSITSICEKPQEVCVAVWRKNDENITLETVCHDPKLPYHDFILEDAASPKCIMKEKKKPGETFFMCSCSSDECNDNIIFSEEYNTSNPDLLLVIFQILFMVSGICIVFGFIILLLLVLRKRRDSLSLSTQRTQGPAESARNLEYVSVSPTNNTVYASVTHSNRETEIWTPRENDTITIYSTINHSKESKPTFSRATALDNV

[8] = molecular target: AA-TGFB-058 (TGFB-058), TGF-BR2 ECD-DAP12 TM-DAP12 ICD
Sequence of AA-TGFB-058 (TGFB-058), TGF-BR2 ECD-DAP12 TM-DAP12 ICD (chain, as listed by the source limits assumed, form in doubt): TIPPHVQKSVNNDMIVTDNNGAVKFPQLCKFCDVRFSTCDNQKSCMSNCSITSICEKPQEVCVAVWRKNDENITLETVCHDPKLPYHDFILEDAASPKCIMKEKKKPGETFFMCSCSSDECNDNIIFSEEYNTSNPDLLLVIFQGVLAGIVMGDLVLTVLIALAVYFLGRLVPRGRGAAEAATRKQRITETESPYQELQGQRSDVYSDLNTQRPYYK

[9] = molecular target: AA-TGFB-021 (TGFB-021), TGF-BR2 ECD-CD28 TM-CD3z ICD
Sequence of AA-TGFB-021 (TGFB-021), TGF-BR2 ECD-CD28 TM-CD3z ICD (chain, as listed by the source limits assumed, form in doubt): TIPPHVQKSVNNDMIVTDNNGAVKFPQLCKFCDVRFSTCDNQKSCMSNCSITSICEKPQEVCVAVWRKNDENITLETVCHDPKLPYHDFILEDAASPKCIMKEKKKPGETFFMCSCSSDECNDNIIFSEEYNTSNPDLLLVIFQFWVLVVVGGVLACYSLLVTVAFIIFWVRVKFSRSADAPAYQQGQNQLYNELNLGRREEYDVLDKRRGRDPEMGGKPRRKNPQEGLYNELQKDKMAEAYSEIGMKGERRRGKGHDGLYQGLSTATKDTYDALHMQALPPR

[10] = molecular target: AA-TGFB-052 (TGFB-052), TGF-BR2 ECD-CD28 TM-41BB ICD
Sequence of AA-TGFB-052 (TGFB-052), TGF-BR2 ECD-CD28 TM-41BB ICD (chain, as listed by the source limits assumed, form in doubt): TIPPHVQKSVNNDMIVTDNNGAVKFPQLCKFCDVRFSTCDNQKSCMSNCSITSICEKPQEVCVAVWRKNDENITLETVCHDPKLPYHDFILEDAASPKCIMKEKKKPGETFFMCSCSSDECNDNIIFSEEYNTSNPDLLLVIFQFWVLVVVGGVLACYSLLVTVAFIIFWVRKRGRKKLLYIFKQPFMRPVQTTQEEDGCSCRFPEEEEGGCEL

[11] = molecular target: AA-TGFB-076 (TGFB-076), TGF-BR2 ECD-EPOR TM-EPOR ICD
[12] = molecular target: AA-TGFB-057 (TGFB-057), TGF-BR2 ECD-CD28 Long TM-MYD88 ICD
Sequence of AA-TGFB-057 (TGFB-057), TGF-BR2 ECD-CD28 Long TM-MYD88 ICD (chain, as listed by the source limits assumed, form in doubt): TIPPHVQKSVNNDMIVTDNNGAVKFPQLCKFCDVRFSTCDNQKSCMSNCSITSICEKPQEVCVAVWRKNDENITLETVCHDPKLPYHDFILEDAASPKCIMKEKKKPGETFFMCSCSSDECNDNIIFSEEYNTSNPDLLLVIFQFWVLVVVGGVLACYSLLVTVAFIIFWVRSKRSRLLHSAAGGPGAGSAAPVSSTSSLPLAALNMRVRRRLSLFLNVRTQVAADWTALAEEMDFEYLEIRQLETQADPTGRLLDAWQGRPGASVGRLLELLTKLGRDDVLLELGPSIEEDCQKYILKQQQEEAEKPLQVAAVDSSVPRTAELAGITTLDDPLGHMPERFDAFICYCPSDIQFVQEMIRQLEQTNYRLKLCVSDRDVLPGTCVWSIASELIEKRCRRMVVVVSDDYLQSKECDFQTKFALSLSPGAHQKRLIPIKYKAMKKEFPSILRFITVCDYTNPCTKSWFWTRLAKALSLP

[13] = molecular target: AA-TGFB-066 (TGFB-066), TGF-BR2 ECD-CD28 Long TM-GRB2 ICD
[14] = molecular target: AA-TGFB-082 (TGFB-082), TGF-BR2 ECD-NKp46 TM-NKp46 ICD
Sequence of AA-TGFB-082 (TGFB-082), TGF-BR2 ECD-NKp46 TM-NKp46 ICD (chain, as listed by the source limits assumed, form in doubt): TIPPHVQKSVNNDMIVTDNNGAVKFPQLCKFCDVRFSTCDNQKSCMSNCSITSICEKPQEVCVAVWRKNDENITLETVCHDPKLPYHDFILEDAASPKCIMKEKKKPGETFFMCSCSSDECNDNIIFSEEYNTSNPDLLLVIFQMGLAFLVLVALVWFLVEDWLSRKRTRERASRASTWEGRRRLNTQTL

[15] = molecular target: AA-TGFB-064 (TGFB-064), TGF-BR2 ECD-CD28 Long TM-TIRAP ICD
Sequence of AA-TGFB-064 (TGFB-064), TGF-BR2 ECD-CD28 Long TM-TIRAP ICD (chain, as listed by the source limits assumed, form in doubt): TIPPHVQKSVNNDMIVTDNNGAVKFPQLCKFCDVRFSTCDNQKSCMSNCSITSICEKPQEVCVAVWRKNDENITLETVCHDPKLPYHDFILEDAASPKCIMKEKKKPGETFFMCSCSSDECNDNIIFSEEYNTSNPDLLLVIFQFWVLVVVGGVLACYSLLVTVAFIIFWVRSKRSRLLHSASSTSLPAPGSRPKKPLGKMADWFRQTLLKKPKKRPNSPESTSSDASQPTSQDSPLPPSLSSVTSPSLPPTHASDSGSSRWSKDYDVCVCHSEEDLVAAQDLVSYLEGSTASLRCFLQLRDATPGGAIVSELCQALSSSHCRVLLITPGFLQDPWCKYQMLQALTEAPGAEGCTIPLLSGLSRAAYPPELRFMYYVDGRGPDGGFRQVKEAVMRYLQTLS

[16] = molecular target: AA-TGFB-059 (TGFB-059), TGF-BR2 ECD-CD28 Long TM-TRAF1 ICD
[17] = molecular target: AA-TGFB-067 (TGFB-067), TGF-BR2 ECD-FCGR2A TM-FCGR2A ICD
Sequence of AA-TGFB-067 (TGFB-067), TGF-BR2 ECD-FCGR2A TM-FCGR2A ICD (chain, as listed by the source limits assumed, form in doubt): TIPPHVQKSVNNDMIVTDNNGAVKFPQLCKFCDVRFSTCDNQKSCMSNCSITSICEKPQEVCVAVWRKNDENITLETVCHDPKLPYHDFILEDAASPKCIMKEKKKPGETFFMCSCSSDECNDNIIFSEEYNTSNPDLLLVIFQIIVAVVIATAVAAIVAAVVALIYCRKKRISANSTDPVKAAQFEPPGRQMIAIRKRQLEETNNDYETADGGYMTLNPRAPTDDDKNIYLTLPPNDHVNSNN

[18] = molecular target: AA-TGFB-062 (TGFB-062), TGF-BR2 ECD-CD28 Long TM-TRAF6 ICD
Sequence of AA-TGFB-062 (TGFB-062), TGF-BR2 ECD-CD28 Long TM-TRAF6 ICD (chain, as listed by the source limits assumed, form in doubt): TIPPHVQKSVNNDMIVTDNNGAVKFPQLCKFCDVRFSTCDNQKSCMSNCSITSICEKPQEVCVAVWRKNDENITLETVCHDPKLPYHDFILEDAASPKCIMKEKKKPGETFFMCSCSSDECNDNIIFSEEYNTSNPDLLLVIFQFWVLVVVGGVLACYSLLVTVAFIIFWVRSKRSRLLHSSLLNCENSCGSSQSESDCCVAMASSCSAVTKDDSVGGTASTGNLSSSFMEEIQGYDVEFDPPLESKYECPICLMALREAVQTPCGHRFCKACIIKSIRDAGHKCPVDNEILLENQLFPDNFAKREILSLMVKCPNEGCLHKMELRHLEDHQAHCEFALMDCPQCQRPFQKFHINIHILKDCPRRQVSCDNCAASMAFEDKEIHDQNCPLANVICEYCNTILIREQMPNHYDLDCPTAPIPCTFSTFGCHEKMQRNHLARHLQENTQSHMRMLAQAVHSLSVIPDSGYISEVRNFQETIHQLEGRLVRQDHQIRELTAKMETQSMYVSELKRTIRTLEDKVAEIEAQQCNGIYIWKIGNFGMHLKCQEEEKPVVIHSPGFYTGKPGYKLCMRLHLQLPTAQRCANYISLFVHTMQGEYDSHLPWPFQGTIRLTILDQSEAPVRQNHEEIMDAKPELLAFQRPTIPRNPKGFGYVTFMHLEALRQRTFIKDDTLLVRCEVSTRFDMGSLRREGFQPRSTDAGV

[19] = molecular target: AA-TGFB-065 (TGFB-065), TGF-BR2 ECD-CD28 Long TM-BLNK ICD
[20] = molecular target: AA-TGFB-019 (TGFB-019), TGF-BR2 ECD-CD28 TM-CD28 ICD
Sequence of AA-TGFB-019 (TGFB-019), TGF-BR2 ECD-CD28 TM-CD28 ICD (chain, as listed by the source limits assumed, form in doubt): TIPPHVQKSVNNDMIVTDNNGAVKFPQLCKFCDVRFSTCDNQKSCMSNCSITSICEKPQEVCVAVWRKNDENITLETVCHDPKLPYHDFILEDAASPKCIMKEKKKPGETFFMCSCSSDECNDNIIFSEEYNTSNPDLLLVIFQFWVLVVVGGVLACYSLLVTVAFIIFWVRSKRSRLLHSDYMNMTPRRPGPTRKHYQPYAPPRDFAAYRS

[21] = molecular target: AA-TGFB-007 (TGFB-007), TGF-BR2 ECD-TGFBR2 TM-TGFBR2 truncated ICD (Homo sapiens (Human)) (UniProt P37173)
Sequence of AA-TGFB-007 (TGFB-007), TGF-BR2 ECD-TGFBR2 TM-TGFBR2 truncated ICD (Homo sapiens (Human)) (P37173 23-199, form in doubt): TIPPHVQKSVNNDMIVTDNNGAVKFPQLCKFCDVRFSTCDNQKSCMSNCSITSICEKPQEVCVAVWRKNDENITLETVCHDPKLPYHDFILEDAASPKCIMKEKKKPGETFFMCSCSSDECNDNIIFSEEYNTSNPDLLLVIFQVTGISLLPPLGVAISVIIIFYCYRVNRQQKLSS

[22] = molecular target: AA-TGFB-061 (TGFB-061), TGF-BR2 ECD-CD28 Long TM-TRAF3 ICD

Sequence of AA-TGFB-081 (TGFB-081), TGF-BR2 ECD-ICOS TM-ICOS ICD (chain, as listed by the source limits assumed, form in doubt): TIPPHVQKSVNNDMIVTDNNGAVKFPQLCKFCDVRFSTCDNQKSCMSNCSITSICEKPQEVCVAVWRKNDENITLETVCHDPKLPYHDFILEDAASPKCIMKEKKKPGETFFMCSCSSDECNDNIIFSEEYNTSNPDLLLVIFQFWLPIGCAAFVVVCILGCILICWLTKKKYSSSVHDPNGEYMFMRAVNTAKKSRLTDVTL
Sequence of AA-TGFB-073 (TGFB-073), TGF-BR2 ECD-SLAMF7 TM-SLAMF7 ICD (chain, as listed by the source limits assumed, form in doubt): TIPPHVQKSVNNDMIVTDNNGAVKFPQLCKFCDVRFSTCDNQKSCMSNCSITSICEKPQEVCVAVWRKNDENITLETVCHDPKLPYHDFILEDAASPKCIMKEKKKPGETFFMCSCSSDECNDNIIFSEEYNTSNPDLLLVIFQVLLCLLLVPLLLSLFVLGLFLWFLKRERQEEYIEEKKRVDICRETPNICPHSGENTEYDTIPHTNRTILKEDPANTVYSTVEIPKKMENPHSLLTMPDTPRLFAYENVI
Sequence of AA-TGFB-077 (TGFB-077), TGF-BR2 ECD-GCSFR TM-GCSFR ICD (chain, as listed by the source limits assumed, form in doubt): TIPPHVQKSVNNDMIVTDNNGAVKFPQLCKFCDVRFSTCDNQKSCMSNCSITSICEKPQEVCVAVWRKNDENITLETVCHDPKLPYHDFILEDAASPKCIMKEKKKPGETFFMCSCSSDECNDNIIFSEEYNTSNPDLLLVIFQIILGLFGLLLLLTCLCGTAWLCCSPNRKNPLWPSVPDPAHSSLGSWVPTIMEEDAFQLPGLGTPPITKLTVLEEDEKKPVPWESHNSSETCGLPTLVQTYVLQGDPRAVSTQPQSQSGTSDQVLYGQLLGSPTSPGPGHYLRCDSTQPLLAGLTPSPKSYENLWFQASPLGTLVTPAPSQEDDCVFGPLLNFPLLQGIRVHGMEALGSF
Sequence of AA-TGFB-086 (TGFB-086), TGF-BR2 ECD-CD28 Long TM-IRAK4 ICD (chain, as listed by the source limits assumed, form in doubt): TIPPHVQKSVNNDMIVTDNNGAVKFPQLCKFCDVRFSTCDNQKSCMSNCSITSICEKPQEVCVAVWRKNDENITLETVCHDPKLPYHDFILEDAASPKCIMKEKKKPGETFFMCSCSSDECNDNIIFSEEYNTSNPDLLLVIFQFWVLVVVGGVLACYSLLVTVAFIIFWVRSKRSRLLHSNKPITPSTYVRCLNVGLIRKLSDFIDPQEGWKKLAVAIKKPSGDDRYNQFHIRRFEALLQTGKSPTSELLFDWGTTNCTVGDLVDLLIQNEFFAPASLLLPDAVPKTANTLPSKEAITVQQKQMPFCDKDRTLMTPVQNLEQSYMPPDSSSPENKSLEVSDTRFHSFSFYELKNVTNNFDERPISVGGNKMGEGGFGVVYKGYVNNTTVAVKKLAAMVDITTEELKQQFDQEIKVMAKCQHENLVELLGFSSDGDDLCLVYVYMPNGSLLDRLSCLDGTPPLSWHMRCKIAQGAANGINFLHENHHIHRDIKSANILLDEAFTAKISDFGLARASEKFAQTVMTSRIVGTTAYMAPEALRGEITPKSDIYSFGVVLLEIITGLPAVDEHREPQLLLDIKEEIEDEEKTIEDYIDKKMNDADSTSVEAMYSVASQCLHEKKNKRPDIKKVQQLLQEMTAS

“recombinant TGF-B1 cytokine (from UniProt P01137 279-390) (ligand)” showed a 5-Day Fold Expansion of NK cells, 10 ng/mL TGF-B1 [1] of 2.31 fold, an Average % Killing (SKOV-3), 10 ng/mL TGF-B1 [1] of 18.8% and an Average IFNg Secretion, 10 ng/mL TGF-B1 [1] of over 9000 pg/mL. The Average IP-10 Secretion, 10 ng/mL TGF-B1 [1] was 2180, the 5-Day Fold Expansion of NK cells, 10 ng/mL TGF-B1 [2] was 1.76 fold and the Average % Killing (SKOV-3), 10 ng/mL TGF-B1 [2] was 7.83%. For the same substance, the Average IFNg Secretion, 10 ng/mL TGF-B1 [2] was 3150 pg/mL, the Average IP-10 Secretion, 10 ng/mL TGF-B1 [2] was 938 and the 5-Day Fold Expansion of NK cells, 10 ng/mL TGF-B1 [3] was 2.52 fold. It also gave an Average % Killing (SKOV-3), 10 ng/mL TGF-B1 [3] of 14.4%, an Average IFNg Secretion, 10 ng/mL TGF-B1 [3] of 6640 pg/mL and an Average IP-10 Secretion, 10 ng/mL TGF-B1 [3] of 1410. It also gave a 5-Day Fold Expansion of NK cells, 10 ng/mL TGF-B1 [4] of 3.08 fold, an Average % Killing (SKOV-3), 10 ng/mL TGF-B1 [4] of 13.1% and an Average IFNg Secretion, 10 ng/mL TGF-B1 [4] of 6910 pg/mL. The Average IP-10 Secretion, 10 ng/mL TGF-B1 [4] was 1420, the 5-Day Fold Expansion of NK cells, 10 ng/mL TGF-B1 [5] was 2.14 fold and the Average % Killing (SKOV-3), 10 ng/mL TGF-B1 [5] was 15.2%. The Average IFNg Secretion, 10 ng/mL TGF-B1 [5] was 6320 pg/mL, the Average IP-10 Secretion, 10 ng/mL TGF-B1 [5] was 1000 and the 5-Day Fold Expansion of NK cells, 10 ng/mL TGF-B1 [6] was 0.66 fold. It also gave an Average % Killing (SKOV-3), 10 ng/mL TGF-B1 [6] of 2.23%, a 5-Day Fold Expansion of NK cells, 10 ng/mL TGF-B1 [7] of 3.89 fold and an Average % Killing (SKOV-3), 10 ng/mL TGF-B1 [7] of 15%. The Average IFNg Secretion, 10 ng/mL TGF-B1 [7] was 8700 pg/mL, the Average IP-10 Secretion, 10 ng/mL TGF-B1 [7] was 1880 and the 5-Day Fold Expansion of NK cells, 10 ng/mL TGF-B1 [8] was 1.76 fold. For the same substance, the Average % Killing (SKOV-3), 10 ng/mL TGF-B1 [8] was 8.35%, the Average IFNg Secretion, 10 ng/mL TGF-B1 [8] was 2360 pg/mL and the Average IP-10 Secretion, 10 ng/mL TGF-B1 [8] was 837. The 5-Day Fold Expansion of NK cells, 10 ng/mL TGF-B1 [9] was 0.45 fold, the Average % Killing (SKOV-3), 10 ng/mL TGF-B1 [9] was 2.26% and the CD69, fold-change of MFI over no stimulation, High (0.05 ug/mL) [9] was 93 fold. For the same substance, the CD69, fold-change of MFI over no stimulation, Low (0.002 ug/mL) [9] was 21.5 fold, the CD69, fold-change of MFI over no stimulation, Med. (0.01 ug/mL) [9] was 62.2 fold and the GFP, fold-change of MFI over no stimulation, High (0.05 ug/mL) [9] was 10.1 fold. For the same substance, the GFP, fold-change of MFI over no stimulation, Low (0.002 ug/mL) [9] was 2.8 fold, the GFP, fold-change of MFI over no stimulation, Med. (0.01 ug/mL) [9] was 9.3 fold and the 5-Day Fold Expansion of NK cells, 10 ng/mL TGF-B1 [10] was 1.57 fold. It also gave an Average % Killing (SKOV-3), 10 ng/mL TGF-B1 [10] of 12.8%, an Average IFNg Secretion, 10 ng/mL TGF-B1 [10] of 8770 pg/mL and an Average IP-10 Secretion, 10 ng/mL TGF-B1 [10] of 976. It also gave a 5-Day Fold Expansion of NK cells, 10 ng/mL TGF-B1 [11] of 2.94 fold, an Average % Killing (SKOV-3), 10 ng/mL TGF-B1 [11] of 14.3% and an Average IFNg Secretion, 10 ng/mL TGF-B1 [11] of 6650 pg/mL. For the same substance, the Average IP-10 Secretion, 10 ng/mL TGF-B1 [11] was 1340, the 5-Day Fold Expansion of NK cells, 10 ng/mL TGF-B1 [12] was 1.02 fold and the Average % Killing (SKOV-3), 10 ng/mL TGF-B1 [12] was 11.2%. The Average IFNg Secretion, 10 ng/mL TGF-B1 [12] was 7770 pg/mL, the Average IP-10 Secretion, 10 ng/mL TGF-B1 [12] was 2760 and the 5-Day Fold Expansion of NK cells, 10 ng/mL TGF-B1 [13] was 1.44 fold. It also gave an Average % Killing (SKOV-3), 10 ng/mL TGF-B1 [13] of 8.89%, an Average IFNg Secretion, 10 ng/mL TGF-B1 [13] of 3270 pg/mL and an Average IP-10 Secretion, 10 ng/mL TGF-B1 [13] of 1240. The 5-Day Fold Expansion of NK cells, 10 ng/mL TGF-B1 [14] was 3.26 fold, the Average % Killing (SKOV-3), 10 ng/mL TGF-B1 [14] was 20.4% and the Average IFNg Secretion, 10 ng/mL TGF-B1 [14] was 7170 pg/mL. It also gave an Average IP-10 Secretion, 10 ng/mL TGF-B1 [14] of 1350, a 5-Day Fold Expansion of NK cells, 10 ng/mL TGF-B1 [15] of 1.04 fold and an Average % Killing (SKOV-3), 10 ng/mL TGF-B1 [15] of 9.89%. For the same substance, the Average IFNg Secretion, 10 ng/mL TGF-B1 [15] was 4790 pg/mL, the Average IP-10 Secretion, 10 ng/mL TGF-B1 [15] was 1540 and the 5-Day Fold Expansion of NK cells, 10 ng/mL TGF-B1 [16] was 0.9 fold. It also gave an Average % Killing (SKOV-3), 10 ng/mL TGF-B1 [16] of 7.99%, an Average IFNg Secretion, 10 ng/mL TGF-B1 [16] of 3060 pg/mL and an Average IP-10 Secretion, 10 ng/mL TGF-B1 [16] of 1300. The 5-Day Fold Expansion of NK cells, 10 ng/mL TGF-B1 [17] was 1.6 fold, the Average % Killing (SKOV-3), 10 ng/mL TGF-B1 [17] was 11.8% and the Average IFNg Secretion, 10 ng/mL TGF-B1 [17] was 4640 pg/mL. For the same substance, the Average IP-10 Secretion, 10 ng/mL TGF-B1 [17] was 1040, the 5-Day Fold Expansion of NK cells, 10 ng/mL TGF-B1 [18] was 1.41 fold and the Average % Killing (SKOV-3), 10 ng/mL TGF-B1 [18] was 8.4%. The Average IFNg Secretion, 10 ng/mL TGF-B1 [18] was 3010 pg/mL, the Average IP-10 Secretion, 10 ng/mL TGF-B1 [18] was 1370 and the 5-Day Fold Expansion of NK cells, 10 ng/mL TGF-B1 [19] was 0.71 fold. The Average % Killing (SKOV-3), 10 ng/mL TGF-B1 [19] was 9.68%, the Average IFNg Secretion, 10 ng/mL TGF-B1 [19] was 3130 pg/mL and the Average IP-10 Secretion, 10 ng/mL TGF-B1 [19] was 1030. For the same substance, the 5-Day Fold Expansion of NK cells, 10 ng/mL TGF-B1 [20] was 1.99 fold, the Average % Killing (SKOV-3), 10 ng/mL TGF-B1 [20] was 21.1% and the Average IFNg Secretion, 10 ng/mL TGF-B1 [20] was 6700 pg/mL. It also gave an Average IP-10 Secretion, 10 ng/mL TGF-B1 [20] of 1170, a 5-Day Fold Expansion of NK cells, 10 ng/mL TGF-B1 [21] of 2 fold and an Average % Killing (SKOV-3), 10 ng/mL TGF-B1 [21] of 24.1%. For the same substance, the Average IFNg Secretion, 10 ng/mL TGF-B1 [21] was over 9000 pg/mL, the Average IP-10 Secretion, 10 ng/mL TGF-B1 [21] was 2150 and the CD69, fold-change of MFI over no stimulation, High (0.05 ug/mL) [21] was 1.2 fold. For the same substance, the CD69, fold-change of MFI over no stimulation, Low (0.002 ug/mL) [21] was 1.4 fold, the CD69, fold-change of MFI over no stimulation, Med. (0.01 ug/mL) [21] was 1.2 fold and the GFP, fold-change of MFI over no stimulation, High (0.05 ug/mL) [21] was 0.8 fold. The GFP, fold-change of MFI over no stimulation, Low (0.002 ug/mL) [21] was 0.7 fold, the GFP, fold-change of MFI over no stimulation, Med. (0.01 ug/mL) [21] was 0.7 fold and the 5-Day Fold Expansion of NK cells, 10 ng/mL TGF-B1 [22] was 1.29 fold. The Average % Killing (SKOV-3), 10 ng/mL TGF-B1 [22] was 8.9%, the Average IFNg Secretion, 10 ng/mL TGF-B1 [22] was 3090 pg/mL and the Average IP-10 Secretion, 10 ng/mL TGF-B1 [22] was 762.
